{
  "source": "paper PMC12205362",
  "test_system": "MutS (Cy3-labeled) (Escherichia coli)",
  "assay": "smFRET (TIRF)",
  "conditions": "GT mismatch, amino-dT, smTIRF FRET on surface-immobilized plasmids, imaging buffer and temperature not in material, dCas9 RNP assembled in 30 mM HEPES, 150 mM KCl, pH 7.5, MutS with …; for binding signal (fold lower k-1 vs RC): ATP",
  "data": [
    {"substance": "pUC19HL_MutS GT mismatch, positively supercoiled (+)SC", "values": [
      {"measurement": "binding signal (fold lower k-1 vs RC)", "setting": "k1 similar to RC, positively supercoiled by 9N reverse gyrase, average sigma +0.03", "value": 1.3},
      {"measurement": "binding signal", "setting": "positively supercoiled by 9N reverse gyrase, average sigma +0.03", "value": "0.107 s-1 (koff)"}
    ]},
    {"substance": "pUC19HL_MutS GT mismatch, negatively supercoiled (-)SC", "values": [
      {"measurement": "binding signal (fold lower k-1 vs RC)", "setting": "k1 ~1.3x higher than RC, negatively supercoiled by gyrase, average sigma -0.07", "value": 1.3},
      {"measurement": "binding signal", "setting": "negatively supercoiled by gyrase, average sigma -0.07", "value": "0.075 s-1 (koff)"}
    ]},
    {"substance": "pUC19HL_MutS GT mismatch, relaxed circular (RC)", "values": [
      {"measurement": "binding signal", "setting": "covalently closed relaxed circle", "value": "0.204 s-1 (koff)"}
    ]}
  ]
}
